Test results from patent US20150344570A1 (published 2015).
Numbering of substitutions follows the chain as printed. Names may count otherwise. Like-named read-outs stand apart in the source and are kept apart here.

What was measured:
Assay in all cases: SPR (Biacore); KD of H240-Kn061/H240-Hl071/L73-k0 divided by KD of the variant
[1] = biological target: T1, FcgRIIa H (FcγRIIa type H) extracellular domain with C-terminal His tag (human, UniProt P12318 34-217)
T1 construct: extracellular domain; also called FcγRIIa H; not shown: His tag attached to the C terminus
T1 sequence (looked up): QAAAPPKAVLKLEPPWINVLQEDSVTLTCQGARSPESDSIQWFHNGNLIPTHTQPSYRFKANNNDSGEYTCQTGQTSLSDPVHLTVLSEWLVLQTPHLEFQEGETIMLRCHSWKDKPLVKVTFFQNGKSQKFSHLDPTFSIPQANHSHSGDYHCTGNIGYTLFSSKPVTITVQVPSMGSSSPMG
Protocol: (§1) The antibodies were assessed for the binding to each FcgR. […] The resultant value was defined as relative KD, and used as an assessment indicator.
(§2) Analysis of interaction between objective antibody and the FcγR was carried out using Biacore T100 (GE Healthcare), Biacore T200, Biacore A100, and Biacore 4000. HBS-EP+ (GE Healthcare) was used as the running buffer, and the measurement temperature was set to 25° C. Chips produced by immobilizing the antigen peptide by the amine coupling method to a Series S sensor Chip CM5 (GE Healthcare), chips produced by allowing preliminarily biotinylated antigen peptides to interact with and immobilize onto a Series S Sensor Chip SA (certified) (GE Healthcare), chips produced by immobilizing Protein L (ACTIGEN, BioVision) to Series S Sencor Chip CM5 (GE Healthcare), or chips produced by immobilizing Protein A/G (Thermo Scientific) to Series S Sencor Chip CM5 (GE Healthcare) were used. Antibodies of interest were captured onto these chips, and allowed to interact to each FcγR diluted with running buffer.

[2] = biological target: T2, FcgRIIb (FcγRIIb) extracellular domain with C-terminal His tag (human, UniProt P31994 43-217)
T2 construct: extracellular domain; not shown: His tag attached to the C terminus
T2 sequence (looked up): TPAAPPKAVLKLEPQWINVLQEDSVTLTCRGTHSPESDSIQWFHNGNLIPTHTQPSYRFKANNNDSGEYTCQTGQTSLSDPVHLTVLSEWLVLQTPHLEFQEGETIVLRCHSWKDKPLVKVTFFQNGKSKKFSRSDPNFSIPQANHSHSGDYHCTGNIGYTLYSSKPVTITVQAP
Protocol: as §1, §2

[3] = biological target: T3, FcgRIIa R (FcγRIIa type R) extracellular domain with C-terminal His tag (human, UniProt P12318 34-217)
T3 construct: extracellular domain; also called FcγRIIa R; not shown: His tag attached to the C terminus
T3 sequence (looked up): T1 sequence (looked up) with H134R
Protocol: as §1, §2

[4] = biological target: T4, FcgRIIIa V (FcγRIIIa type V) extracellular domain with C-terminal His tag (human, UniProt P08637 17-208)
T4 construct: extracellular domain; also called FcγRIIIa V; not shown: His tag attached to the C terminus
T4 sequence (P08637 17-208 F176V limits assumed): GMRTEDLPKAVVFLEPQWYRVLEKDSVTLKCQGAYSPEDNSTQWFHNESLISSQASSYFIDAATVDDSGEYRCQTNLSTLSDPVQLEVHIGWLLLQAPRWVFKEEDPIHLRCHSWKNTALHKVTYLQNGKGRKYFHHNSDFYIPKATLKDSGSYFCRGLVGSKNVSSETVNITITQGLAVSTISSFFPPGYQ
Protocol: as §1, §2

[5] = biological target: T5, FcgRIIIa F (FcγRIIIa type F) extracellular domain with C-terminal His tag (human, UniProt P08637 17-208)
T5 construct: extracellular domain; also called FcγRIIIa F; 3aF; not shown: His tag attached to the C terminus
T5 sequence (P08637 17-208): as the sequence (P08637 17-208 F176V limits assumed) above, with V160F counted along it
Protocol: as §1, §2

[6] = biological target: T2, FcgRIIb (FcγRIIb) extracellular domain …; remark: listed apart in the source
Protocol: as §1, §2

[7] = biological target: T4, FcgRIIIa V (FcγRIIIa type V) …; remark: listed apart in the source
Protocol: as §1, §2

[8] = biological target: T5, FcgRIIIa F (FcγRIIIa type F) …; remark: listed apart in the source
Protocol: as §1, §2

B1: H240-Kn061/H240-Hl071/L73-k0 variant with A231E in H240-Kn061 (antibody, human IgG1, kappa)
heavy 1: QDQLVQSGAEVKKPGASVKVSCKASGFNIKDTYIQWVRQAPGQGLEWMGRIDPLRKQTKYREKFEGRVTITADTSTNTAYMELSSLRSEDTAVYYCVRSGREFDYWGQGTLVTVSSASTKGPSVFPLAPSSKSTSGGTAALGCLVKDYFPEPVTVSWNSGALTSGVHTFPAVLQSSGLYSLSSVVTVPSSSLGTQTYICNVNHKPSNTKVDKKVEPKSCDKTHTCPPCPEPEYYWGPSVFLFPPKPKDTLMISRTPEVTCVVVDVSDEDPEVKFNWYVDGVEVHNAKTKPREEQYNATYRVVSVLTVLHQDWLNGKEYKCKVSNKALPAPIEKTISKAKGQPREPQVCTLPPSRDELTKNQVSLWCLVKGFYPSDIAVEWESNGQPENNYKTTPPVLDSDGSFFLYSKLTVDKSRWQQGNVFSCSVMHEALHNHYTQKSLSLSP
heavy 2: QDQLVQSGAEVKKPGASVKVSCKASGFNIKDTYIQWVRQAPGQGLEWMGRIDPLRKQTKYREKFEGRVTITADTSTNTAYMELSSLRSEDTAVYYCVRSGREFDYWGQGTLVTVSSASTKGPSVFPLAPSSKSTSGGTAALGCLVKDYFPEPVTVSWNSGALTSGVHTFPAVLQSSGLYSLSSVVTVPSSSLGTQTYICNVNHKPSNTKVDKKVEPKSCDKTHTCPPCPAPELLGGPSVFLFPPKPKDTLMISRTPEVTCVVVDVSHEDPEVKFNWYVDGVEVHNAKTKPREEQYNSTYRVVSVLTVLHQDWLNGKEYKCKVSNDALPMPIEETISKAKGQPREPQVYTLPPSRCELTKNQVSLSCAVKGFYPSDIAVEWESNGQPENNYKTTPPVLDSDGSFFLVSKLTVDKSRWQQGNVFSCSVMHEALHNHYTQKSLSLSP
light: DIQMTQSPSSLSASVGDRVTITCRASQDIHKYIAWYQQKPGQAPRLLIQYTSTLQPGVPSRFSGSGSGTDYTFTISSLQPEDIATYYCLQYEQLRTFGGGTKVEIKRTVAAPSVFIFPPSDEQLKSGTASVVCLLNNFYPREAKVQWKVDNALQSGNSQESVTEQDSKDSTYSLSSTLTLSKADYEKHKVYACEVTHQGLSSPVTKSFNRGEC
notes: anti-epiregulin heterodimerized IgG1; also called H240-Kn061 A231E
- relative KD [1]: 1.6 ratio
- relative KD [2]: 1.4 ratio
- relative KD [3]: 1.7 ratio
- relative KD [4]: 2 ratio
- relative KD [5]: 1.8 ratio

B2: H240-Kn061/H240-Hl071/L73-k0 variant with S239L in H240-Kn061 (antibody, human IgG1, kappa)
heavy 1: B1 heavy 1 with E230A, S238L
heavy 2: B1 heavy 2
light: B1 light
notes: anti-epiregulin heterodimerized IgG1; also called H240-Kn061 S239L
- relative KD [1]: 2.4 ratio
- relative KD [2]: 3.4 ratio
- relative KD [3]: 4.8 ratio
- relative KD [4]: 3.7 ratio
- relative KD [5]: 3.4 ratio

B3: H240-Kn061/H240-Hl071/L73-k0 variant with S239M in H240-Kn061 (antibody, human IgG1, kappa)
heavy 1: B1 heavy 1 with E230A, S238M
heavy 2: B1 heavy 2
light: B1 light
notes: anti-epiregulin heterodimerized IgG1; also called H240-Kn061 S239M
- relative KD [1]: 2 ratio
- relative KD [2]: 2.2 ratio
- relative KD [3]: 3.2 ratio
- relative KD [4]: 2.8 ratio
- relative KD [5]: 2.2 ratio

B4: H240-Kn061/H240-Hl071/L73-k0 variant with V240H in H240-Hl071 (antibody, human IgG1, kappa)
heavy 1: B1 heavy 1 with E230A
heavy 2: B1 heavy 2 with V239H
light: B1 light
notes: anti-epiregulin heterodimerized IgG1; also called H240-Hl071 V240H
- relative KD [1]: 0.8 ratio
- relative KD [2]: 0.3 ratio
- relative KD [3]: 0.7 ratio
- relative KD [4]: 1 ratio
- relative KD [5]: 1.3 ratio

B5: H240-Kn061/H240-Hl071/L73-k0 variant with S239I in H240-Kn061 (antibody, human IgG1, kappa)
heavy 1: B1 heavy 1 with E230A, S238I
heavy 2: B1 heavy 2
light: B1 light
notes: anti-epiregulin heterodimerized IgG1; also called H240-Kn061 S239I
- relative KD [1]: 2.1 ratio
- relative KD [2]: 3.1 ratio
- relative KD [3]: 4.4 ratio
- relative KD [4]: 3.4 ratio
- relative KD [5]: 3 ratio

B6: H240-Kn061/H240-Hl071/L73-k0 variant with Y234I in H240-Kn061 (antibody, human IgG1, kappa)
heavy 1: B1 heavy 1 with E230A, Y233I
heavy 2: B1 heavy 2
light: B1 light
notes: anti-epiregulin heterodimerized IgG1; also called H240-Kn061 Y234I
- relative KD [1]: 2.6 ratio
- relative KD [2]: 7.7 ratio
- relative KD [3]: 4.1 ratio
- relative KD [4]: 1.3 ratio
- relative KD [5]: 1.2 ratio

B7: H240-Kn061/H240-Hl071/L73-k0 variant with A231V in H240-Kn061 (antibody, human IgG1, kappa)
heavy 1: B1 heavy 1 with E230V
heavy 2: B1 heavy 2
light: B1 light
notes: anti-epiregulin heterodimerized IgG1; also called H240-Kn061 A231V
- relative KD [1]: 1.6 ratio
- relative KD [2]: 1.6 ratio
- relative KD [3]: 1.6 ratio
- relative KD [4]: 1.5 ratio
- relative KD [5]: 1.3 ratio

B8: H240-Kn061/H240-Hl071/L73-k0 variant with Y234L in H240-Kn061 (antibody, human IgG1, kappa)
heavy 1: B1 heavy 1 with E230A, Y233L
heavy 2: B1 heavy 2
light: B1 light
notes: anti-epiregulin heterodimerized IgG1; also called H240-Kn061 Y234L
- relative KD [1]: 1.5 ratio
- relative KD [2]: 3.5 ratio
- relative KD [3]: 2.2 ratio
- relative KD [4]: 1.2 ratio
- relative KD [5]: 1.1 ratio

B9: H240-Kn061/H240-Hl071/L73-k0 variant with Y235W in H240-Kn061 (antibody, human IgG1, kappa)
heavy 1: B1 heavy 1 with E230A, Y234W
heavy 2: B1 heavy 2
light: B1 light
notes: anti-epiregulin heterodimerized IgG1; also called H240-Kn061 Y235W
- relative KD [6]: 1.3 ratio
- relative KD [7]: 1.3 ratio
- relative KD [8]: 1.1 ratio

B10: H240-Kn061/H240-Hl071/L73-k0 variant with S239V in H240-Kn061 (antibody, human IgG1, kappa)
heavy 1: B1 heavy 1 with E230A, S238V
heavy 2: B1 heavy 2
light: B1 light
notes: anti-epiregulin heterodimerized IgG1; also called H240-Kn061 S239V
- relative KD [1]: 2.4 ratio
- relative KD [2]: 3.4 ratio
- relative KD [3]: 4.2 ratio
- relative KD [4]: 2.9 ratio
- relative KD [5]: 2.4 ratio

B11: H240-Kn061/H240-Hl071/L73-k0 variant with F241N in H240-Hl071 (antibody, human IgG1, kappa)
heavy 1: B1 heavy 1 with E230A
heavy 2: B1 heavy 2 with F240N
light: B1 light
notes: anti-epiregulin heterodimerized IgG1; also called H240-Hl071 F241N
- relative KD [1]: 3.5 ratio
- relative KD [2]: 1.1 ratio
- relative KD [3]: 3.8 ratio
- relative KD [4]: 0.7 ratio
- relative KD [5]: 0.8 ratio

B12: H240-Kn061/H240-Hl071/L73-k0 variant with A231Q in H240-Kn061 (antibody, human IgG1, kappa)
heavy 1: B1 heavy 1 with E230Q
heavy 2: B1 heavy 2
light: B1 light
notes: anti-epiregulin heterodimerized IgG1; also called H240-Kn061 A231Q
- relative KD [1]: 1.5 ratio
- relative KD [2]: 1.4 ratio
- relative KD [3]: 1.5 ratio
- relative KD [4]: 1.7 ratio
- relative KD [5]: 1.5 ratio
